T1: mouse BMP receptor kinase protein m-BRK-3 (mouse), O35607
T1 chain: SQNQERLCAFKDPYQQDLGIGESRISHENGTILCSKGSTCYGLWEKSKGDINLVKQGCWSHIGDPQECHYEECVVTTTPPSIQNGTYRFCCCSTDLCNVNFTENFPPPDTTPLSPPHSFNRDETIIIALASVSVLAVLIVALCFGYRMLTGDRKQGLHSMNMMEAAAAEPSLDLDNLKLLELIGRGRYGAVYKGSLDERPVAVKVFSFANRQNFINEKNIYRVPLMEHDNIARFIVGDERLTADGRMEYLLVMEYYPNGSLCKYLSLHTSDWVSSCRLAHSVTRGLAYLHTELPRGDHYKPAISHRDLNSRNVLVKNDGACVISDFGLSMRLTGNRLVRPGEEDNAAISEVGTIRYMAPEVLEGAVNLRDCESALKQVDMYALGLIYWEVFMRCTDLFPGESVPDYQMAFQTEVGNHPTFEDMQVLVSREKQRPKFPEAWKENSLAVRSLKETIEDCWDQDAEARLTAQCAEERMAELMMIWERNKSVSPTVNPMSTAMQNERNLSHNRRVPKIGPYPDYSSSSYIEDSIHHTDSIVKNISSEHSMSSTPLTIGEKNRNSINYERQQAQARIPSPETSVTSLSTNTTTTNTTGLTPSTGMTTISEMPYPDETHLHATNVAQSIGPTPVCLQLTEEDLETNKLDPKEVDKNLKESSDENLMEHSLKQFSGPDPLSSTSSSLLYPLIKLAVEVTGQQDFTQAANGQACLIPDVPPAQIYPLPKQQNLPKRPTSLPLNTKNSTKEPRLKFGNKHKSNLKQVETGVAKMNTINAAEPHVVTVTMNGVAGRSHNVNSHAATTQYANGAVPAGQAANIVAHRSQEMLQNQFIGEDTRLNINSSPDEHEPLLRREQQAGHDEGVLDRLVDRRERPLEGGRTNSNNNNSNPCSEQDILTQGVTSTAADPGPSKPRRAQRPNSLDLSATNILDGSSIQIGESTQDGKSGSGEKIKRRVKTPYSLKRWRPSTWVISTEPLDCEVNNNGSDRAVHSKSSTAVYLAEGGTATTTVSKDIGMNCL


Legend:
[1] = target: T1, mouse BMP receptor kinase protein …; experiment: whole cell binding of radiolabeled ligand, COS-1 cells transfected with pJT6-mBRK-3S or pJT6-mBRK-3L; details: remark: other sources report otherwise; scale: times the level seen with mock transfected cells
[2] = target: T2, BRK-2 co-expressed with t-BRK-3 (BRK-2/t-BRK-3 complex) (chicken; human, UniProt Q05438 14-502; Q13873 27-540); experiment: competition, 10 nM unlabeled ligand against [^125I]-BMP-4; crosslinking and immunoprecipitation with antiserum 1380
T2 construct: Both receptors co-transfected into COS cells; also called BRK-2 and BRK-3 receptor complex; BRK-2 plus t-BRK-3
T2 sequence (Q05438 14-502 limits assumed, one chain of several): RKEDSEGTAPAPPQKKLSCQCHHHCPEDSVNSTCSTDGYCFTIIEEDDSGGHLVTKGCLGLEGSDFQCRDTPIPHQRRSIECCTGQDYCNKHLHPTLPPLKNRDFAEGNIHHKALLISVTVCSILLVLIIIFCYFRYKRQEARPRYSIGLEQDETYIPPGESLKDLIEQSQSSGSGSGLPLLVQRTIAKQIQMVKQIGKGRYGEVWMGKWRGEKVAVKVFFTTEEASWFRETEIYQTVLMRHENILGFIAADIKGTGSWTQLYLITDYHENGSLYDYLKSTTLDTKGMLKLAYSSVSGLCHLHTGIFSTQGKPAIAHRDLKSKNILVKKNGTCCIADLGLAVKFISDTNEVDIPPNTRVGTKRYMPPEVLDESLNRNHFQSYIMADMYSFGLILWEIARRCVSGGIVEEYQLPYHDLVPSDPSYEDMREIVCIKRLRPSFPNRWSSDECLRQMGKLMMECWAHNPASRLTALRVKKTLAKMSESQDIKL
Description: Following the crosslinking, cells are washed three times with ice-cold PBS, then lysed with 1 ml of RIP buffer (20 mM TrisCl, pH 8.0, 100 mM NaCl, 1 mM Na_2EDTA, 0.5% Nonidet P-40, 0.5% sodium deoxycholate, 10 mM sodium iodide, and 1% bovine serum albumin) for 10 min. The lysate is centrifuged in a microcentrifuge at 13,000 rpm for 10 min at 4° C. The supernatant is transferred to a fresh tube and made 0.1% in SDS. To remove any existing antibody present in the lysate, 50 µl of PANSORBIN (Calbiochem, La Jolla, Calif.; a 10% solution of *Staphylococcus aureus*) is added. After a 30 minute incubation at 4° C., the lysate is centrifuged as before, and the supernatant again transferred to a fresh tube.
To precipitate the complex of antigen:primary antibody, 25–50 µl of PANSORBIN is then added and incubated 30 min on ice. The complex is pelleted at 13,000 rpm for 10 min in a microcentrifuge and the supernatant discarded. The pellet is washed twice in RIP buffer containing 0.1% SDS, and once in TNEN buffer (20 mM Tris, pH 8.0, 100 mM NaCl, 1 mM EDTA, 0.5% NP-40). The pellet is resuspended in 25 µl of 1× sample loading buffer. (Alternatively, the pellet may be washed twice with TNEN buffer, with similar results.) The sample is boiled for 5 min, centrifuged for 5 min, and subjected to gel electrophoresis after loading of the samples onto a 7.5% SDS-polyacrylamide gel.

Row | specific binding of [^125I]-BMP-4 relative to mock transfected cells [1] | binding result [2] | Binder
1 | 4 to 7 |  | bone morphogenetic protein 4, P12644 293-408 (ligand, UniProt P12644 293-408, looked up, here or on the partner: 125I-labelled when used as tracer ([^125I]-BMP-4; IODOBEADS or chloramine-T method); unlabeled when used as competitor) SPKHHSQRARKKNKNCRRHSLYVDFSDVGWNDWIVAPPGYQAFYCHGDCPFPLADHLNSTNHAIVQTLVNSVNSSIPKACCVPTELSAISMLYLDEYDKVVLKNYQEMVVEGCGCR
2 |  | binds | bone morphogenetic protein 2 (ligand, UniProt P12643 283-396, looked up, also called BMP-2) QAKHKQRKRLKSSCKRHPLYVDFSDVGWNDWIVAPPGYHAFYCHGECPFPLADHLNSTNHAIVQTLVNSVNSKIPKACCVPTELSAISMLYLDENEKVVLKNYQDMVVEGCGCR
